Here are results for 38 variants from the RNAGym collection of RNA variant scans (doi:10.7554/elife.80360).

B1: Hairpin Ribozyme (parent)
chain: GUCCUCUUUCACGUGCGCGUGAAAGAGAGAAGUGAACCAGAGAAACACACGUUGUGGUAUAUUACCUGGUA

The variants in the data set derive from B1. The experiment in a line: self-cleavage, relative activity (ratio to wild type); higher = more cleavage; co-transcriptional.
With GUCCUCUUUCACGCGCGCGUGAAAGAGAGAAGUGAACCAGAGAAACACAGGUUGUGGUAUAUUACCUGGUA, the self-cleavage was determined as 0.268.
As to GUCCUCUUUCACGCGCGCGUGAAAGAGAGAAGUGAACCAGAGAAAAACACGUUGUGGUAUAUUACCUGGUA, the self-cleavage turned out to be 0.174.
To GUCCUCUUUCACGCGCGCGUGAAAGAGAGAAGUGAACCAGAGAAAUACACGUUGUGGUAUAUUACCUGGUA belongs 0.078.
In the case of GUCCUCUUUCACGCGCGCGUGAAAGAGAGAAGUGAACCAGAGAAAGACACGUUGUGGUAUAUUACCUGGUA, the self-cleavage came out at 0.0498.
Consider GUCCUCUUUCACGCGCGCGUGAAAGAGAGAAGUGAACCAGAGAAACACACGUUGUGUUAUAUUACCUGGUA, for which the self-cleavage was found to be 0.265.
As for GUCCUCUUUCACGCGCGCGUGAAAGAGAGAAGUGAACCAGAGAAACACACGUUGUGGUAUAUUACCUCGUA, the figure is 0.212; as for GUCCUCUUUCACGCGCGAGUGAAAGAGAGAAGUGAACCAGAGAAACACACGUUGUGGUAUAUUACCUGGUA, 0.933.
As for GUCCUCUUUCACGCGCGUGUGAAAGAGAGAAGUGAACCAGAGAAACACACGUUGUGGUAUAUUACCUGGUA, the figure is 0.868.
For GUCCUCUUUCACGCGCGCGUUAAAGAGAGAAGUGAACCAGAGAAACACACGUUGUGGUAUAUUACCUGGUA, the self-cleavage was 0.702.
Take GUCCUCUUUCACGCGCGCGUGAAAGAGAGAAGUGAACCAGAGAAACACACGUUGUGGUAUAUUAGCUGGUA: the self-cleavage was 0.214.
Regarding GUCCUCUUUCACGCGCGCGUGAAAGAGAGAAGUGAACCAGAGAAACACACGUUGUGGUAUAUUAACUGGUA, the self-cleavage was determined as 0.93.
As for GUCCUCUUUCACGCGCUCGUGAAAGAGAGAAGUGAACCAGAGAAACACACGUUGUGGUAUAUUACCUGGUA, the figure is 1.24; as for GUCCUCUUUCACGCGCACGUGAAAGAGAGAAGUGAACCAGAGAAACACACGUUGUGGUAUAUUACCUGGUA, 0.861; as for GUCCUCUUUCACGCGUGCGUGAAAGAGAGAAGUGAACCAGAGAAACACACGUUGUGGUAUAUUACCUGGUA, 0.728.
GUCCUCUUUCACGCGCGCGUGAAAGAGAGAAGUGAACCAGAGAAACAGACGUUGUGGUAUAUUACCUGGUA: the self-cleavage is 0.26.
Consider GUCCUCUUUCACGCGCGCGUGAAAGAUAGAAGUGAACCAGAGAAACACACGUUGUGGUAUAUUACCUGGUA, for which the self-cleavage is 0.102.
As for GUCCUCUUUCACGCGCGCGUGAAAGAGAGAAGUGAAUCAGAGAAACACACGUUGUGGUAUAUUACCUGGUA, the figure is 0.376; as for GUCCUCUUUCACGCGCGCCUGAAAGAGAGAAGUGAACCAGAGAAACACACGUUGUGGUAUAUUACCUGGUA, 0.79; as for GUCCUCUUUCACGCGCGCUUGAAAGAGAGAAGUGAACCAGAGAAACACACGUUGUGGUAUAUUACCUGGUA, 0.88.
Turning to GUCCUCUUUCACGCGCGCGUGAAAGAGAGAAGUGAACCAGACAAACACACGUUGUGGUAUAUUACCUGGUA, the self-cleavage was determined as 0.403.
For the variant GUCCUCUUUCACGCGCGCGUGAAAGAGAGAAGUGAACCAGAUAAACACACGUUGUGGUAUAUUACCUGGUA, the self-cleavage amounted to 0.365.
To GUCCUCUUUCACGCGCGCGUGAAAGAGAGAAGUGAACCAGAAAAACACACGUUGUGGUAUAUUACCUGGUA belongs 0.154; to GUCCUCUUUCACGCGCGCGUGAAAGAGAGAAGUGAACCAGAGAAACACACGUUGUGGUAUAUUACCUGGUU, 0.87; to GUCCUCUUUCACGCGCGCGUGAAAGAGAGAAGUGAACCAGAGAAACACCCGUUGUGGUAUAUUACCUGGUA, 0.162.
To GUCCUCUUUCACGCGCGCGUGAAAGAGAGAAGUGAACCAGAGAAACACUCGUUGUGGUAUAUUACCUGGUA belongs 0.134; to GUCCUCUUUCACGCGCGCGUGAAAGAGAGAAGUGAACCAGAGAAACCCACGUUGUGGUAUAUUACCUGGUA, 0.484.
To GUCCUCUUUCACGCGCGCGUGAAAGAGAGAAGUGAACCAGAGAAACUCACGUUGUGGUAUAUUACCUGGUA belongs 0.112.
As to GUCCUCUUUCACGCGCGCGUGAAAGAGACAAGUGAACCAGAGAAACACACGUUGUGGUAUAUUACCUGGUA, the self-cleavage is 0.17.
On to GUCCUCUUUCACGCGCGCGUGAAAGAGAGAAGUGAACCAGAGAAACACACGUUGUGGUAUAUUACGUGGUA, for which the self-cleavage came to 0.337.
GUCCUCUUUCACGCGCGCGUGAAAGAGAGAAGUGAACCAGAGAAACACACGUUGUGGUAUAUUACUUGGUA: the self-cleavage was determined as 0.408.
As for GUCCUCUUUCACGCUCGCGUGAAAGAGAGAAGUGAACCAGAGAAACACACGUUGUGGUAUAUUACCUGGUA, the figure is 0.926.
To GUCCUCUUUCACGCACGCGUGAAAGAGAGAAGUGAACCAGAGAAACACACGUUGUGGUAUAUUACCUGGUA belongs 0.825; to GUCCUCUUUCACGCCCGCGUGAAAGAGAGAAGUGAACCAGAGAAACACACGUUGUGGUAUAUUACCUGGUA, 0.932.
As for GUCCUCUUUCACGCGCGCGUGAAAGAGAGAAGUGAACAAGAGAAACACACGUUGUGGUAUAUUACCUGGUA, the figure is 0.0751; as for GUCCUCUUUCACGCGCGCGUGAAAGAGAGAAAUGAACCAGAGAAACACACGUUGUGGUAUAUUACCUGGUA, 0.0498; as for GUCCUCUUUCACGCGCGCGUGAAAGAGAGAAGUGAACCAGAGAGACACACGUUGUGGUAUAUUACCUGGUA, 0.155.
Take GUCCUCUUUCACGCGCGCGUGAAAGAGAGAAGUGAACCAGAGAAACACACGUUGUGGUGUAUUACCUGGUA: the self-cleavage is 0.0434.
GUCCUCUUUCACGCGCGCGUGAAAGAGAGAAGUGAACCAGAGAAACACACGUUGUGGUUUAUUACCUGGUA: the self-cleavage was 0.081.
